Data on six molecules can be found in patent publication US20130209355A1 (Genmab, published 2013).

In one assay the target is Human recombinant CD38 (human, UniProt P28907 43-300, limits assumed). Description: cell-based or functional assay.
The target of a further assay is T1, CD38 on Daudi-luc cells (UniProt P28907 1-300).
T1 construct: whole, on cells; also called Daudi cells
Description: flow cytometry on Daudi-luc cells, anti-human IgG-FITC. On the technique in general: A flow cytometer gives signals particle by particle.

Assay [1] deals with T2, human CD38 on CD38-transfected CHO cells (CHO-CD38 cells) (human, UniProt P28907 1-300).
T2 construct: The construct used to transfect the CHO cells is not described; also called CHO cells transfected with CD38; cellular expressed CD38
Description: flow cytometry on CHO-CD38 cells, anti-human IgG-FITC.

In assay [2] the target is T3, HA-CD38 (N-terminal HA tag, extracellular domain of human CD38), wild type (human, UniProt P28907 45-300).
T3 construct: Used as culture supernatant of HEK-293F cells, captured by anti-HA antibody; also called wild type (WT) CD38; pEE13.4HACD38
Description: ELISA, HA-CD38 captured by anti-HA antibody.

Regarding HuMab-KLH (antibody), in the assay with Human recombinant CD38, the pmol cADPR/min (reverse cyclase reaction) (pmol cADPR/min) was determined as 4.3.

B1: anti-CD38 antibody 025 (antibody, human IgG1, V domains shown)
VH: QVQLVQSGAEVKKPGSSVKVSCKAFGGTFSSYAISWVRQAPGQGLEWMGRIIRFLGKANHAQKFQGRVTLTADKSTNTAYMELSSLRSEDTAVYYCAGEPGDRDPDAVDIWGQGTMVTVSS
VL: DIQMTQSPSSLSASVGDRVTITCRASQGIRSWLAWYQQKPEKAPKSLIYAASSLQSGVPSRFSGSGSGTDFTLTISSLQPEDFATYYCQQYNSYPLTFGGGTKVEIK
Take B1: the binding result (with CD38 on Daudi-luc cells; in assay [1]; in assay [2]) was “binds” in each case.

B2: anti-CD38 antibody 028 (antibody, human IgG1, V domains shown)
VH: QVQLVQSGAEVKKPGSSVKVSCKAFGGTFSSYAISWVRQAPGQGLEWMGRIIRFLGIANYAQKFQGRVTLIADKSTNTAYMELSSLRSEDTAVYYCAGEPGERDPDAVDIWGQGTMVTVSS
VL: DIQMTQSPSSLSASVGDRVTITCRASQGIRSWLAWYQQKPEKAPKSLIYAASSLQSGVPSRFSGSGSGTDFTLTISSLQPEDFATYYCQQYNSYPLTFGGGTKVEIK
With B2, the “IC50 of inhibition of NAADP production (base-exchange activity, HPLC)” value with Human recombinant CD38 stood at 0.14 µg/mL.

B3: anti-CD38 antibody 049 (antibody, human IgG1, V domains shown)
VH: QVQLVQSGAEVMKPGSSVKVSCKASGGTFRSYAISWVRQAPGQGLEWMGRIIVFLGKTNYAQKFQGRVTLTADKSTTTAYMELSSLRSEDTAVYYCTGEPGARDPDAFDIWGQGTMVTVSS
VL: DIQMTQSPSSLSASVGDRVTITCRASQGIRSWLAWYQQKPEKAPKSLIYAASSLQSGVPSRFSGSGSGTDFTLTISSLQPEDFATYYCQQYNNYPLTFGGGTKVEIK
For B3, the binding result (with CD38 on Daudi-luc cells; in assay [1]; in assay [2]) was “binds” throughout.

B4: anti-CD38 antibody 026 (antibody, human IgG1, V domains shown)
VH: QVQLVQSGAEVKKPGSSVKVSCKAFGGTFSSYAISWVRQAPGQGLEWMGRIIRFLGKTNHAQKFQGRVTLTADKSTNTAYMELSSLRSEDTAVYYCAGEPGDRDPDAVDIWGQGTMVTVSS
VL: DIQMTQSPSSLSASVGDRVTITCRASQGIRSWLAWYQQKPEKAPKSLIYAASSLQSGVPSRFSGSGSGTDFTLTISSLQPEDFATYYCQQYNSYPLTFGGGTKVEIK
notes: also called -057
As to B4, the binding result (with CD38 on Daudi-luc cells; in assay [1]; in assay [2]) was “binds” in each case.

B5: anti-CD38 antibody 056 (antibody, human IgG1, V domains shown)
VH: QVQLVQSGAEVKKPGSSVKVSCKPSGGTFRSYAISWVRQAPGQGLEWMGRIIVFLGKVNYAQRFQGRVTLTADKSTTTAYMELSSLRSEDTAVYYCTGEPGARDPDAFDIWGQGTMVTVSS
VL: DIQMTQSPSSLSASVGDRVTITCRASQGIRSWLAWYQQKPEKAPKSLIYAASSLQSGVPSRFSGSGSGTDFTLTISSLQPEDFATYYCQQYNNYPLTFGGGTKVEIK
On to B5, for which the binding result (in the assay with CD38 on Daudi-luc cells; in assay [1]) was “binds” each time.
